The numbers were not newly measured in US7214519B2, “Screening method for identifying heme independent modulators of soluble guanylyl cyclase (sGC) activity using αβCys105 mutant sGC” (Board of Regents of the University of Texas System, priority 2003, dated 2007), which cites them from elsewhere.

Like-named read-outs stand apart in the source and are kept apart here.

The data set addresses T1, αβ^Phe105 sGC (Bos taurus, UniProt P16068+P19687, H105F).
T1 sequence (P16068 1-619 H105F): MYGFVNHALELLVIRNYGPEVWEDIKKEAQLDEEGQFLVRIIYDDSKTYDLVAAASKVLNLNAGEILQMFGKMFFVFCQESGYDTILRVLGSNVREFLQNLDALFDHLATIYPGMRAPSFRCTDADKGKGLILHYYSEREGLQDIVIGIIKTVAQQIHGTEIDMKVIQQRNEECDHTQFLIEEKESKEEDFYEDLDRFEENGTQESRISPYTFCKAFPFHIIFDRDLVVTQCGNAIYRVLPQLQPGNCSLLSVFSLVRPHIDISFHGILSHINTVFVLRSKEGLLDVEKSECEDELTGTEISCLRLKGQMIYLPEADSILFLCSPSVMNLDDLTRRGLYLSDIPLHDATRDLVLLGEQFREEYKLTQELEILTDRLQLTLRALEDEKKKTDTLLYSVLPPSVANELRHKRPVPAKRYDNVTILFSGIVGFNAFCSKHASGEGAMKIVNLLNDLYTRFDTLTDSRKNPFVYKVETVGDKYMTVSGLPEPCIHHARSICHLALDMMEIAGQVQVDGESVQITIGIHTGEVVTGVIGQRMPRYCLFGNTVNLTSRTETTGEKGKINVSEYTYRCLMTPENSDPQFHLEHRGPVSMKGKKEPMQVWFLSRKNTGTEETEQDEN
T1 sequence (P19687 1-691): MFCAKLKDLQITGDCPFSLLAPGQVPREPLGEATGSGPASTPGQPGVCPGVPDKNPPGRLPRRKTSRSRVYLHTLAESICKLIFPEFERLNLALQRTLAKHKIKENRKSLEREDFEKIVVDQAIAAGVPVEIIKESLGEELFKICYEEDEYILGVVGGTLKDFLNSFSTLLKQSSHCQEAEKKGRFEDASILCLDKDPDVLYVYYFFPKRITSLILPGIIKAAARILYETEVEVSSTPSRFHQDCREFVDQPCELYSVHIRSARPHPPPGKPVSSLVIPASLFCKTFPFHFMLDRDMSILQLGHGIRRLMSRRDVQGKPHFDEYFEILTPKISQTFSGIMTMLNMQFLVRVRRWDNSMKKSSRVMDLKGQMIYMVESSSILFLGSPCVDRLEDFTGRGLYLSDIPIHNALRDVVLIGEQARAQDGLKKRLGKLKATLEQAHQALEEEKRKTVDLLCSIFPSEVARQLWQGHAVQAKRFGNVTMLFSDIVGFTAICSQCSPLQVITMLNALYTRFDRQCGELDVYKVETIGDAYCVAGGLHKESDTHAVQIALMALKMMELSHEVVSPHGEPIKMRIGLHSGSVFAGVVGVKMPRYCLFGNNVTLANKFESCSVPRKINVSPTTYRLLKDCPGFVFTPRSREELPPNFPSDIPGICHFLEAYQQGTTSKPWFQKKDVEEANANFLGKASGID
The note with it: cited from earlier work; for Specific activity: with DTT.

B1: αβ^Phe105: bovine sGC with βHis105→Phe substitution, from the literature (40) (protein, UniProt P19687 1-691; P16068 1-619, looked up, variant H105F)
Guanylate cyclase soluble … 1: T1 sequence (P19687 1-691)
Guanylate cyclase soluble … 2: T1 sequence (P16068 1-619 H105F)
modifications: mutation in beta subunit
For the molecule B1, the basal activity result is “about 40 nmol/min/mg”. Moreover, the Specific activity (+NO) was 0.11 ± 0.03 µmol/min/mg. Moreover, the Specific activity (Basal) is 0.04 ± 0.03 µmol/min/mg.
